These are literature values, as cited in publication PMC10065799, “High-throughput profiling of sequence recognition by tyrosine kinases and SH2 domains using bacterial peptide display” (eLife, 2023).

The data set concerns the target PD1 phosphosite peptide (Homo sapiens) (UniProt Q15116).

The term Kd denotes a measure of binding affinity in units of concentration. Turning to SHP2 N-SH2 (from UniProt Q06124), the dissociation constant Kd is 2000 nM.
